The RNAGym collection of RNA variant scans (doi:10.1093/molbev/msab373)

B1: Azoarcus group I ribozyme (parent)
chain: GUGCCUUGCGCCGGGAAACCACGCAAGGGAUGGUGUCAAAUUCGGCGAAACCUAAGCGCCCGCCCGGGCGUAUGGCAACGCCGAGCCAAGCUUCGGCGCCUGCGCCGAUGAAGGUGUAGAGACUAGACGGCACCCACCUAAGGCAAACGCUAUGGUGAAGGCAUAGUCCAGGGAGUGGCGAAAGUCACACAAACCGG

Variants of: B1
Assay: reverse-splicing fitness (ratio to wild type); higher = more active; in vitro selection; Mg2+ level not given
Method in brief: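 An in vitro group I ribozyme library with randomized positions was T7-transcribed and gel-purified. In triplicate, 10 pmol RNA in EPPS pH 7.5 was reacted with 50 pmoles of a 30-nt RNA substrate for 1 h at 37 °C across several added MgCl2 levels (1–48 mM), then stopped with EDTA. Products were reverse transcribed from a substrate-complementary primer, PCR-amplified and sequenced (HiSeq 4000). Fitness is a variant's read proportion after selection over that before, normalised to wild type.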

Row | Variant | reverse-splicing fitness
1 | C82A A111G A120G A145U C150A C169A | 0.00837
2 | C82A A111G A120G A145U C169G U176G | 0.00452
3 | C82A A111G A120G A145U C169G U176A | 0.0122
4 | C82A A111G A120G A145U C169G U176C | 0.0158
5 | C82A A111G A120G C150G C169G | 0.00739
6 | C82A A111G A120G C150G C169A | 0.00929
7 | C82A A111G A120G C150G C169U | 0.00856
8 | C82A A111G A120G A145U C150A C169A U176C | 0.0121
9 | C82A A111G A120G A145U C150A C169A U176A | 0.0161
10 | C82A A111G A120G A145U C150A C169A U176G | 0.00585
11 | C82A A111G A120G A145G C150A C169G U176C | 0.0239
12 | C82A A111G A120G A145G C150A C169G U176G | 0.00592
13 | C82A A111G A120G A145G C150A C169G U176A | 0.0194
14 | C82A A111G A120G A145G C150G C169U U176A | 0.0118
15 | C82A A111G A120G A145G C150G C169U U176C | 0.0133
16 | C82A A111G A120G A145G C150G C169U U176G | 0.00793
17 | C82A A111G A120G A145U C150G C169G U176G | 0.00446
18 | C82A A111G A120G A145U C150G C169G U176A | 0.00739
19 | C82A A111G A120G A145U C150G C169G U176C | 0.00461
20 | C82A A111G A120G A145U C150G C169A U176A | 0.00976
21 | C82A A111G A120G A145U C150G C169A U176C | 0.0101

Row | Variant | reverse-splicing fitness
22 | C82A A111G A120G A145U C150G C169A U176G | 0.00526
23 | C82A A111G A120G A145G C150A C169U U176G | 0.00673
24 | C82A A111G A120G A145G C150A C169U U176A | 0.0192
25 | C82A A111G A120G A145G C150A C169U U176C | 0.0184
26 | C82A A111G A120G C150A C169G U176A | 0.0211
27 | C82A A111G A120G C150A C169G U176G | 0.00613
28 | C82A A111G A120G C150A C169G U176C | 0.0245
29 | C82A A111G A120G A145G C150G C169A U176G | 0.00875
30 | C82A A111G A120G A145G C150G C169A U176C | 0.0131
31 | C82A A111G A120G A145G C150G C169A U176A | 0.0139
32 | C82A A111G A120G C150G U176G | 0.00346
33 | C82A A111G A120G C150G U176C | 0.00974
34 | C82A A111G A120G C150G U176A | 0.0058
35 | C82A A111G A120G A145G C150G C169G U176G | 0.00614
36 | C82A A111G A120G A145G C150G C169G U176C | 0.0114
37 | C82A A111G A120G A145G C150G C169G U176A | 0.0101
38 | C82A A111G A120G A145G C150G U176A | 0.00684
39 | C82A A111G A120G A145G C150G U176C | 0.00999
40 | C82A A111G A120G A145G C150G U176G | 0.00568
41 | C82A A111G A120G C150U C169A U176A | 0.0153
42 | C82A A111G A120G C150U C169A U176G | 0.00549

Row | Variant | reverse-splicing fitness
43 | C82A A111G A120G C150U C169A U176C | 0.0173
44 | C82A A111G A120G A145G C150A C169G | 0.00854
45 | C82A A111G A120G A145G C150A C169U | 0.00938
46 | C82A A111G A120G A145U C150A C169G U176C | 0.0169
47 | C82A A111G A120G A145U C150A C169G U176A | 0.0145
48 | C82A A111G A120G A145U C150A C169G U176G | 0.00478
49 | C82A A111G A120G A145G C150A C169A U176C | 0.0218
50 | C82A A111G A120G A145G C150A C169A U176G | 0.00687
51 | C82A A111G A120G A145U C150U C169G U176C | 0.0137
52 | C82A A111G A120G A145U C150U C169G U176G | 0.00537
53 | C82A A111G A120G A145U C150U C169G U176A | 0.014
54 | C82A A111G A120G C150U C169U | 0.0102
55 | C82A A111G A120G C150U C169A | 0.00952
56 | C82A A111G A120G C150U C169G | 0.0108
57 | C82A A111G A120G C150A C169G | 0.00987
58 | C82A A111G A120G C150A C169U | 0.00823
59 | C82A A111G A120G C150A C169A | 0.0103
60 | C82A A111G A120G A145U | 0.015
61 | C82A A111G A120G A145G C169G U176G | 0.00435
62 | C82A A111G A120G A145G C169G U176C | 0.0276
63 | C82A A111G A120G A145G C169G U176A | 0.0204

Row | Variant | reverse-splicing fitness
64 | C82A A111G A120G A145G C169A U176A | 0.0226
65 | C82A A111G A120G A145G C169A U176G | 0.00461
66 | C82A A111G A120G A145G C169A U176C | 0.0254
67 | C82A A111G A120G A145G C150G C169U | 0.0091
68 | C82A A111G A120G A145G C150G C169G | 0.00754
69 | C82A A111G A120G A145G C150G C169A | 0.00897
70 | C82A A111G A120G A145U C169A U176G | 0.0046
71 | C82A A111G A120G A145U C169A U176C | 0.0121
72 | C82A A111G A120G A145U C169A U176A | 0.0117
73 | C82A A111G A120G A145U C150A | 0.00927
74 | C82A A111G A120G A145U C150U | 0.0134
75 | C82A A111G A120G A145U C150G | 0.00709
76 | C82A A111G A120G A145U U176A | 0.0131
77 | C82A A111G A120G A145U U176C | 0.0167
78 | C82A A111G A120G A145U U176G | 0.00583
79 | C82A A111G A120G A145U C150A U176G | 0.00563
80 | C82A A111G A120G A145U C150A U176C | 0.0154
81 | C82A A111G A120G A145U C150A U176A | 0.0117
82 | C82A A111G A120G C150A | 0.0105
83 | C82A A111G A120G C150G | 0.00686
84 | C82A A111G A120G C150U | 0.0127
